From patent publication US20180273587A1 (AILERON THERAPEUTICS, published 2018) come the findings set out here.

Common to all, as to test: Ki table, method not stated
One assay concerns the target T1, MCL-1 (UniProt Q07820 172-327, limits assumed).
T1 construct: also called Myeloid cell leukemia 1

Another assay has as its target BCL-XL (UniProt Q07817 1-209).
The next assay has as its target BCL-2 (UniProt P10415 1-217, limits assumed).

Positions of bridges follow the written chain, without caps; N, C: chain ends. Non-standard residues stand in square brackets, D forms with d. Bip = N[C@@H](Cc1ccc(-c2ccccc2)cc1)C(=O)O; αMeW = C[C@](N)(Cc1c[nH]c2ccccc12)C(=O)O; R8 = C=CCCCCCC[C@@](C)(N)C(=O)O; S5 = C=CCCC[C@](C)(N)C(=O)O; Ac6c = NC1(C(=O)O)CCCCC1; Aib = CC(C)(N)C(=O)O

Sequence of BCL-XL (Q07817 1-209): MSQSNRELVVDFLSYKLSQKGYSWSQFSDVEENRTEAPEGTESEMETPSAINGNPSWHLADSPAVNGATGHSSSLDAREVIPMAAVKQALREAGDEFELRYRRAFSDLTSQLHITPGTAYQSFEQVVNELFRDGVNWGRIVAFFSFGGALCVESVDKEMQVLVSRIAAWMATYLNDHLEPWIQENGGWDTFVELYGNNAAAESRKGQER
Sequence of BCL-2 (P10415 1-217 limits assumed): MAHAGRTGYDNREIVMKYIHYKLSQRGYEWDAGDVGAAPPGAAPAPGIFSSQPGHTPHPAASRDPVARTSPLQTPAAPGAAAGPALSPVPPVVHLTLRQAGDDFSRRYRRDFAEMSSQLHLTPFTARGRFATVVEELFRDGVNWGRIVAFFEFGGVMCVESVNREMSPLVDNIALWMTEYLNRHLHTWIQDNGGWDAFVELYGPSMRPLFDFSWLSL
T1 sequence (Q07820 172-327 limits assumed): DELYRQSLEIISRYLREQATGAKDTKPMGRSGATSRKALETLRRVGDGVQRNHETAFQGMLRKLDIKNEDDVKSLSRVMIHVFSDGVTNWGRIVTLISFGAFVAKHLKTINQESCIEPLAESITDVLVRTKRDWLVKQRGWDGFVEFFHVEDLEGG

B1: SEQ ID NO: 1703 (peptide)
peptide: Ac-I[αMeW]IAQALR[R8]IGDAFN[S5]YYA-NH2
modifications: staple 9-16
SMILES: CC[C@H](C)[C@H](NC(C)=O)C(=O)N[C@@](C)(Cc1c[nH]c2ccccc12)C(=O)N[C@H](C(=O)N[C@@H](C)C(=O)N[C@@H](CCC(N)=O)C(=O)N[C@@H](C)C(=O)N[C@@H](CC(C)C)C(=O)N[C@@H](CCCNC(=N)N)C(=O)N[C@]1(C)CCCCCCC=CCCC[C@@](C)(C(=O)N[C@@H](Cc2ccc(O)cc2)C(=O)N[C@@H](Cc2ccc(O)cc2)C(=O)N[C@@H](C)C(N)=O)NC(=O)[C@H](CC(N)=O)NC(=O)[C@H](Cc2ccccc2)NC(=O)[C@H](C)NC(=O)[C@H](CC(=O)O)NC(=O)CNC(=O)[C@H]([C@@H](C)CC)NC1=O)[C@@H](C)CC
notes: also called Ac-IAmWIAQALR$r8IGDAFN$YYA-NH2
B1: the figures for the Ki with MCL-1, with BCL-XL and in the assay with BCL-2 were 9.9 nM, 17.4 nM and 70.6 nM, respectively.

B2: SEQ ID NO: 1697 (peptide)
peptide: Ac-IWIAQA[Bip]R[R8]IGDAFN[S5]YYA-NH2
modifications: staple 9-16
SMILES: CC[C@H](C)[C@H](NC(C)=O)C(=O)N[C@@H](Cc1c[nH]c2ccccc12)C(=O)N[C@H](C(=O)N[C@@H](C)C(=O)N[C@@H](CCC(N)=O)C(=O)N[C@@H](C)C(=O)N[C@@H](Cc1ccc(-c2ccccc2)cc1)C(=O)N[C@@H](CCCNC(=N)N)C(=O)N[C@]1(C)CCCCCCC=CCCC[C@@](C)(C(=O)N[C@@H](Cc2ccc(O)cc2)C(=O)N[C@@H](Cc2ccc(O)cc2)C(=O)N[C@@H](C)C(N)=O)NC(=O)[C@H](CC(N)=O)NC(=O)[C@H](Cc2ccccc2)NC(=O)[C@H](C)NC(=O)[C@H](CC(=O)O)NC(=O)CNC(=O)[C@H]([C@@H](C)CC)NC1=O)[C@@H](C)CC
notes: also called Ac-IWIAQABipR$r8IGDAFN$YYA-NH2
Turning to B2, the Ki (commonly the dissociation constant of the complex between target and ligand, obtained from inhibition or displacement) with MCL-1 came to 83.7 nM; with BCL-XL, 8 nM; with BCL-2, 280 nM.

B3: SEQ ID NO: 1720 (peptide)
peptide: Ac-SWIAAALR[R8]IGDAFN[S5]YYA-NH2
modifications: staple 9-16
SMILES: CC[C@H](C)[C@H](NC(=O)[C@H](Cc1c[nH]c2ccccc12)NC(=O)[C@H](CO)NC(C)=O)C(=O)N[C@@H](C)C(=O)N[C@@H](C)C(=O)N[C@@H](C)C(=O)N[C@@H](CC(C)C)C(=O)N[C@@H](CCCNC(=N)N)C(=O)N[C@]1(C)CCCCCCC=CCCC[C@@](C)(C(=O)N[C@@H](Cc2ccc(O)cc2)C(=O)N[C@@H](Cc2ccc(O)cc2)C(=O)N[C@@H](C)C(N)=O)NC(=O)[C@H](CC(N)=O)NC(=O)[C@H](Cc2ccccc2)NC(=O)[C@H](C)NC(=O)[C@H](CC(=O)O)NC(=O)CNC(=O)[C@H]([C@@H](C)CC)NC1=O
As to B3, the Ki was 3.9 nM with MCL-1, 33.4 nM with BCL-XL and 53.2 nM with BCL-2.

B4: SEQ ID NO: 1721 (peptide)
peptide: Ac-QWIAAALR[R8]IGDAFN[S5]YYA-NH2
modifications: staple 9-16
SMILES: CC[C@H](C)[C@H](NC(=O)[C@H](Cc1c[nH]c2ccccc12)NC(=O)[C@H](CCC(N)=O)NC(C)=O)C(=O)N[C@@H](C)C(=O)N[C@@H](C)C(=O)N[C@@H](C)C(=O)N[C@@H](CC(C)C)C(=O)N[C@@H](CCCNC(=N)N)C(=O)N[C@]1(C)CCCCCCC=CCCC[C@@](C)(C(=O)N[C@@H](Cc2ccc(O)cc2)C(=O)N[C@@H](Cc2ccc(O)cc2)C(=O)N[C@@H](C)C(N)=O)NC(=O)[C@H](CC(N)=O)NC(=O)[C@H](Cc2ccccc2)NC(=O)[C@H](C)NC(=O)[C@H](CC(=O)O)NC(=O)CNC(=O)[C@H]([C@@H](C)CC)NC1=O
As to B4, the Ki with MCL-1 was 4.8 nM; with BCL-XL, 35.9 nM; with BCL-2 it was 64.9 nM.

B5: SEQ ID NO: 1722 (peptide)
peptide: Ac-AWIAAALR[R8]IGDAFN[S5]YYA-NH2
modifications: staple 9-16
SMILES: CC[C@H](C)[C@H](NC(=O)[C@H](Cc1c[nH]c2ccccc12)NC(=O)[C@H](C)NC(C)=O)C(=O)N[C@@H](C)C(=O)N[C@@H](C)C(=O)N[C@@H](C)C(=O)N[C@@H](CC(C)C)C(=O)N[C@@H](CCCNC(=N)N)C(=O)N[C@]1(C)CCCCCCC=CCCC[C@@](C)(C(=O)N[C@@H](Cc2ccc(O)cc2)C(=O)N[C@@H](Cc2ccc(O)cc2)C(=O)N[C@@H](C)C(N)=O)NC(=O)[C@H](CC(N)=O)NC(=O)[C@H](Cc2ccccc2)NC(=O)[C@H](C)NC(=O)[C@H](CC(=O)O)NC(=O)CNC(=O)[C@H]([C@@H](C)CC)NC1=O
Take B5: the Ki with MCL-1 stood at 3.8 nM; with BCL-XL, 32.6 nM; in the assay with BCL-2 it was 63.9 nM.

B6: SEQ ID NO: 1725 (peptide)
peptide: Ac-IDIAAALR[R8]IGDAFN[S5]YYA-NH2
modifications: staple 9-16
SMILES: CC[C@H](C)[C@H](NC(C)=O)C(=O)N[C@@H](CC(=O)O)C(=O)N[C@H](C(=O)N[C@@H](C)C(=O)N[C@@H](C)C(=O)N[C@@H](C)C(=O)N[C@@H](CC(C)C)C(=O)N[C@@H](CCCNC(=N)N)C(=O)N[C@]1(C)CCCCCCC=CCCC[C@@](C)(C(=O)N[C@@H](Cc2ccc(O)cc2)C(=O)N[C@@H](Cc2ccc(O)cc2)C(=O)N[C@@H](C)C(N)=O)NC(=O)[C@H](CC(N)=O)NC(=O)[C@H](Cc2ccccc2)NC(=O)[C@H](C)NC(=O)[C@H](CC(=O)O)NC(=O)CNC(=O)[C@H]([C@@H](C)CC)NC1=O)[C@@H](C)CC
On to B6, for which the figures for the Ki in the assay with MCL-1, in the assay with BCL-XL and with BCL-2 were 3 nM, 36.3 nM and 41.1 nM, respectively.

B7: SEQ ID NO: 1724 (peptide)
peptide: Ac-FWIAAALR[R8]IGDAFN[S5]YYA-NH2
modifications: staple 9-16
SMILES: CC[C@H](C)[C@H](NC(=O)[C@H](Cc1c[nH]c2ccccc12)NC(=O)[C@H](Cc1ccccc1)NC(C)=O)C(=O)N[C@@H](C)C(=O)N[C@@H](C)C(=O)N[C@@H](C)C(=O)N[C@@H](CC(C)C)C(=O)N[C@@H](CCCNC(=N)N)C(=O)N[C@]1(C)CCCCCCC=CCCC[C@@](C)(C(=O)N[C@@H](Cc2ccc(O)cc2)C(=O)N[C@@H](Cc2ccc(O)cc2)C(=O)N[C@@H](C)C(N)=O)NC(=O)[C@H](CC(N)=O)NC(=O)[C@H](Cc2ccccc2)NC(=O)[C@H](C)NC(=O)[C@H](CC(=O)O)NC(=O)CNC(=O)[C@H]([C@@H](C)CC)NC1=O
With B7, the Ki with MCL-1 worked out at 6.2 nM; with BCL-XL, 33.9 nM; with BCL-2 it was 76.7 nM.

B8: SEQ ID NO: 1726 (peptide)
peptide: Ac-IRIAAALR[R8]IGDAFN[S5]YYA-NH2
modifications: staple 9-16
SMILES: CC[C@H](C)[C@H](NC(C)=O)C(=O)N[C@@H](CCCNC(=N)N)C(=O)N[C@H](C(=O)N[C@@H](C)C(=O)N[C@@H](C)C(=O)N[C@@H](C)C(=O)N[C@@H](CC(C)C)C(=O)N[C@@H](CCCNC(=N)N)C(=O)N[C@]1(C)CCCCCCC=CCCC[C@@](C)(C(=O)N[C@@H](Cc2ccc(O)cc2)C(=O)N[C@@H](Cc2ccc(O)cc2)C(=O)N[C@@H](C)C(N)=O)NC(=O)[C@H](CC(N)=O)NC(=O)[C@H](Cc2ccccc2)NC(=O)[C@H](C)NC(=O)[C@H](CC(=O)O)NC(=O)CNC(=O)[C@H]([C@@H](C)CC)NC1=O)[C@@H](C)CC
Turning to B8, the Ki in the assay with MCL-1 stood at 9.8 nM; with BCL-XL it was 20.5 nM; in the assay with BCL-2 it was 39.1 nM.

B9: SEQ ID NO: 1714 (peptide)
peptide: Ac-IW[Ac6c]AQALR[R8]IGDAFN[S5]YYA-NH2
modifications: staple 9-16
SMILES: CC[C@H](C)[C@H](NC(C)=O)C(=O)N[C@@H](Cc1c[nH]c2ccccc12)C(=O)NC1(C(=O)N[C@@H](C)C(=O)N[C@@H](CCC(N)=O)C(=O)N[C@@H](C)C(=O)N[C@@H](CC(C)C)C(=O)N[C@@H](CCCNC(=N)N)C(=O)N[C@]2(C)CCCCCCC=CCCC[C@@](C)(C(=O)N[C@@H](Cc3ccc(O)cc3)C(=O)N[C@@H](Cc3ccc(O)cc3)C(=O)N[C@@H](C)C(N)=O)NC(=O)[C@H](CC(N)=O)NC(=O)[C@H](Cc3ccccc3)NC(=O)[C@H](C)NC(=O)[C@H](CC(=O)O)NC(=O)CNC(=O)[C@H]([C@@H](C)CC)NC2=O)CCCCC1
notes: also called Ac-IWAc6cAQALR$r8IGDAFN$YYA-NH2
As to B9, the Ki with MCL-1 amounted to 10.4 nM; with BCL-XL it was 7.7 nM; with BCL-2, 25.7 nM.

B10: SEQ ID NO: 1704 (peptide)
peptide: Ac-I[Aib]IAQALR[R8]IGDAFN[S5]YYA-NH2
modifications: staple 9-16
SMILES: CC[C@H](C)[C@H](NC(C)=O)C(=O)NC(C)(C)C(=O)N[C@H](C(=O)N[C@@H](C)C(=O)N[C@@H](CCC(N)=O)C(=O)N[C@@H](C)C(=O)N[C@@H](CC(C)C)C(=O)N[C@@H](CCCNC(=N)N)C(=O)N[C@]1(C)CCCCCCC=CCCC[C@@](C)(C(=O)N[C@@H](Cc2ccc(O)cc2)C(=O)N[C@@H](Cc2ccc(O)cc2)C(=O)N[C@@H](C)C(N)=O)NC(=O)[C@H](CC(N)=O)NC(=O)[C@H](Cc2ccccc2)NC(=O)[C@H](C)NC(=O)[C@H](CC(=O)O)NC(=O)CNC(=O)[C@H]([C@@H](C)CC)NC1=O)[C@@H](C)CC
notes: also called Ac-IAibIAQALR$r8IGDAFN$YYA-NH2
In the case of B10, the Ki with MCL-1 amounted to 42.5 nM; with BCL-XL it was 83.5 nM; with BCL-2, 97.9 nM.

B11: SEQ ID NO: 1708 (peptide)
peptide: Ac-IWIA[Aib]ALR[R8]IGDAFN[S5]YYA-NH2
modifications: staple 9-16
SMILES: CC[C@H](C)[C@H](NC(C)=O)C(=O)N[C@@H](Cc1c[nH]c2ccccc12)C(=O)N[C@H](C(=O)N[C@@H](C)C(=O)NC(C)(C)C(=O)N[C@@H](C)C(=O)N[C@@H](CC(C)C)C(=O)N[C@@H](CCCNC(=N)N)C(=O)N[C@]1(C)CCCCCCC=CCCC[C@@](C)(C(=O)N[C@@H](Cc2ccc(O)cc2)C(=O)N[C@@H](Cc2ccc(O)cc2)C(=O)N[C@@H](C)C(N)=O)NC(=O)[C@H](CC(N)=O)NC(=O)[C@H](Cc2ccccc2)NC(=O)[C@H](C)NC(=O)[C@H](CC(=O)O)NC(=O)CNC(=O)[C@H]([C@@H](C)CC)NC1=O)[C@@H](C)CC
notes: also called Ac-IWIAAibALR$r8IGDAFN$YYA-NH2
B11: the figures for the Ki with MCL-1, with BCL-XL and with BCL-2 were 5.5 nM, 59 nM and 120 nM, respectively.
